Source: patent US20250295772A1 (ABATA THERAPEUTICS, published 2025)
Numbering of substitutions follows the chain as printed.

Target: T1, preproinsulin 73-90 peptide complexed with HLA-DRB1*04:01 (human, UniProt P01903 26-254; P01911 30-266)
T1 MHC II alpha: not shown
T1 MHC II beta: not shown
T1 peptide: GAGSLQPLALEGSLQKRG
Assay: cell-based or functional assay

B1: TCR-C (TCR)
TCR alpha: RGNGKNQVEQSPQSLIILEGKNCTLQCNYTVSPFSNLRWYKQDTGRGPVSLTIMTFSENTKSNGRYTATLDADTKQSSLHITASQLSDSASYICVVGPSGGSNYKLTFGKGTLLTVNPNIQNPDPAVYQLRDSKSSDKSVCLFTDFDSQTNVSQSKDSDVYITDKTVLDMRSMDFKSNSAVAWSNKSDFACANAFNNSIIPEDTFFPSPESSCDVKLVEKSFETDTNLNFQNLSVIGFRILLLKVAGFNLLMTLRLWSS
TCR beta: DSGVTQTPKHLITATGQRVTLRCSPRSGDLSVYWYQQSLDQGLQFLIQYYNGEERAKGNILERFSAQQFPDLHSELNLSSLELGDSALYFCASSGQGFLGNTEAFFGQGTRLTVVEDLNKVFPPEVAVFEPSEAEISHTQKATLVCLATGFFPDHVELSWWVNGKEVHSGVSTDPQPLKEQPALNDSRYCLSSRLRVSATFWQNPRNHFRCQVQFYGLSENDEWTQDRAKPVTQIVSAEAWGRADCGFTSVSYQQGVLSATILYEILLGKATLYAVLVSALVLMAMVKRKDF
In the case of B1, the “EC50 (nM) of CD69 upregulation, conventional CD4+ T cells + BLS-DRB1*04:01 cells, peptide titrated” value (shortened to “EC50 (nM) of CD69 upregulation”) is reported as 156 nM.

B2: TCR-C DS (TCR)
TCR alpha: B1 TCR alpha with T166C
TCR beta: B1 TCR beta with S172C
In the case of B2, the “EC50 (nM) of CD69 upregulation” value is reported as 24.2 nM.

B3: TCR-B (TCR)
TCR alpha: EDKVVQSPLSLVVHEGDTVTLNCSYEVTNFRSLLWYKQEKKAPTFLFMLTSSGIEKKSGRLSSILDKKELFSILNITATQTGDSAVYLCAVNSGAGSYQLTFGKGTKLSVIPNIQNPDPAVYQLRDSKSSDKSVCLFTDFDSQTNVSQSKDSDVYITDKTVLDMRSMDFKSNSAVAWSNKSDFACANAFNNSIIPEDTFFPSPESSCDVKLVEKSFETDTNLNFQNLSVIGFRILLLKVAGFNLLMTLRLWSS
TCR beta: DAEITQSPRHKITETGRQVTLACHQTWNHNNMFWYRQDLGHGLRLIHYSYGVQDTNKGEVSDGYSVSRSNTEDLPLTLESAASSQTSVYFCASSSGGLYEQYFGPGTRLTVTEDLKNVFPPEVAVFEPSEAEISHTQKATLVCLATGFYPDHVELSWWVNGKEVHSGVSTDPQPLKEQPALNDSRYCLSSRLRVSATFWQNPRNHFRCQVQFYGLSENDEWTQDRAKPVTQIVSAEAWGRADCGFTSESYQQGVLSATILYEILLGKATLYAVLVSALVLMAMVKRKDSRG
In the case of B3, the “EC50 (nM) of CD69 upregulation” value is reported as 5.68 nM.

B4: TCR-B DS (TCR)
TCR alpha: B3 TCR alpha with T160C
TCR beta: B3 TCR beta with S169C
With B4 the “EC50 (nM) of CD69 upregulation” value was 3.78 nM.

B5: TCR-H (TCR)
TCR alpha: EDQVTQSPEALRLQEGESSSLNCSYTVSGLRGLFWYRQDPGKGPEFLFTLYSAGEEKEKERLKATLTKKESFLHITAPKPEDSATYLCAVQLSDSNYKLTFGKGTLLTVNPNIQNPDPAVYQLRDSKSSDKSVCLFTDFDSQTNVSQSKDSDVYITDKTVLDMRSMDFKSNSAVAWSNKSDFACANAFNNSIIPEDTFFPSPESSCDVKLVEKSFETDTNLNFQNLSVIGFRILLLKVAGFNLLMTLRLWSS
TCR beta: NAGVTQTPKFQVLKTGQSMTLQCAQDMNHNSMYWYRQDPGMGLRLIYYSASEGTTDKGEVPNGYNVSRLNKREFSLRLESAAPSQTSVYFCASRGQVNEKLFFGSGTQLSVLEDLNKVFPPEVAVFEPSEAEISHTQKATLVCLATGFFPDHVELSWWVNGKEVHSGVSTDPQPLKEQPALNDSRYCLSSRLRVSATFWQNPRNHFRCQVQFYGLSENDEWTQDRAKPVTQIVSAEAWGRADCGFTSVSYQQGVLSATILYEILLGKATLYAVLVSALVLMAMVKRKDF
For B5, the “EC50 (nM) of CD69 upregulation” value was 0.93 nM.

B6: TCR-H DS (TCR)
TCR alpha: B5 TCR alpha with T159C
TCR beta: B5 TCR beta with S169C
In the case of B6, the “EC50 (nM) of CD69 upregulation” value is reported as 0.62 nM.

B7: TCR-D (TCR)
TCR alpha: NSVTQMEGPVTLSEEAFLTINCTYTATGYPSLFWYVQYPGEGLQLLLKATKADDKGSNKGFEATYRKETTSFHLEKGSVQVSDSAVYFCALSEKTSYDKVIFGPGTSLSVIPNIQNPDPAVYQLRDSKSSDKSVCLFTDFDSQTNVSQSKDSDVYITDKTVLDMRSMDFKSNSAVAWSNKSDFACANAFNNSIIPEDTFFPSPESSCDVKLVEKSFETDTNLNFQNLSVIGFRILLLKVAGFNLLMTLRLWSS
TCR beta: NAGVTQTPKFRILKIGQSMTLQCTQDMNHNYMYWYRQDPGMGLKLIYYSVGAGITDKGEVPNGYNVSRSTTEDFPLRLELAAPSQTSVYFCASSYGPGGSEAFFGQGTRLTVVEDLNKVFPPEVAVFEPSEAEISHTQKATLVCLATGFFPDHVELSWWVNGKEVHSGVSTDPQPLKEQPALNDSRYCLSSRLRVSATFWQNPRNHFRCQVQFYGLSENDEWTQDRAKPVTQIVSAEAWGRADCGFTSVSYQQGVLSATILYEILLGKATLYAVLVSALVLMAMVKRKDF
For B7, the “EC50 (nM) of CD69 upregulation” value was 4.42 nM.

B8: TCR-E DS (TCR)
TCR alpha: B7 TCR alpha with E93V, T160C
TCR beta: NAGVTQTPKFQVLKTGQSMTLQCAQDMNHNSMYWYRQDPGMGLRLIYYSASEGTTDKGEVPNGYNVSRLNKREFSLRLESAAPSQTSVYFCASSRDRGPETQYFGPGTRLLVLEDLKNVFPPEVAVFEPSEAEISHTQKATLVCLATGFYPDHVELSWWVNGKEVHSGVCTDPQPLKEQPALNDSRYCLSSRLRVSATFWQNPRNHFRCQVQFYGLSENDEWTQDRAKPVTQIVSAEAWGRADCGFTSESYQQGVLSATILYEILLGKATLYAVLVSALVLMAMVKRKDSRG
B8 was tested, and the “EC50 (nM) of CD69 upregulation” value was 3.47 nM.

B9: TCR-D DS (TCR)
TCR alpha: B7 TCR alpha with T160C
TCR beta: B7 TCR beta with S170C
B9 was tested, and the “EC50 (nM) of CD69 upregulation” value was 2.18 nM.

B10: TCR-E (TCR)
TCR alpha: B7 TCR alpha with E93V
TCR beta: B8 TCR beta with C170S
B10 was tested, and the “EC50 (nM) of CD69 upregulation” value was 7.78 nM.

B11: TCR-G (TCR)
TCR alpha: QKEVEQNSGPLSVPEGAIASLNCTYSDRGSQSFFWYRQYSGKSPELIMFIYSNGDKEDGRFTAQLNKASQYVSLLIRDSQPSDSATYLCAVIYSSASKIIFGSGTRLSIRPNIQNPDPAVYQLRDSKSSDKSVCLFTDFDSQTNVSQSKDSDVYITDKTVLDMRSMDFKSNSAVAWSNKSDFACANAFNNSIIPEDTFFPSPESSCDVKLVEKSFETDTNLNFQNLSVIGFRILLLKVAGFNLLMTLRLWSS
TCR beta: SQTIHQWPATLVQPVGSPLSLECTVEGTSNPNLYWYRQAAGRGLQLLFYSVGIGQISSEVPQNLSASRPQDRQFILSSKKLLLSDSGFYLCAWSVQRLGRGGETQYFGPGTRLLVLEDLKNVFPPEVAVFEPSEAEISHTQKATLVCLATGFYPDHVELSWWVNGKEVHSGVSTDPQPLKEQPALNDSRYCLSSRLRVSATFWQNPRNHFRCQVQFYGLSENDEWTQDRAKPVTQIVSAEAWGRADCGFTSESYQQGVLSATILYEILLGKATLYAVLVSALVLMAMVKRKDSRG
For B11, the “EC50 (nM) of CD69 upregulation” value was 11.2 nM.

B12: TCR-G DS (TCR)
TCR alpha: B11 TCR alpha with T159C
TCR beta: B11 TCR beta with S173C
B12 was tested, and the “EC50 (nM) of CD69 upregulation” value was 1.89 nM.

B13: TCR-I (TCR)
TCR alpha: IDAKTTQPTSMDCAEGRAANLPCNHSTISGNEYVYWYRQIHSQGPQYIIHGLKNNETNEMASLIITEDRKSSTLILPHATLRDTAVYYCIVRFQSGGYQKVTFGTGTKLQVIPNIQNPDPAVYQLRDSKSSDKSVCLFTDFDSQTNVSQSKDSDVYITDKTVLDMRSMDFKSNSAVAWSNKSDFACANAFNNSIIPEDTFFPSPESSCDVKLVEKSFETDTNLNFQNLSVIGFRILLLKVAGFNLLMTLRLWSS
TCR beta: DAGVIQSPRHEVTEMGQEVTLRCKPISGHNSLFWYRQTMMRGLELLIYFNNNVPIDDSGMPEDRFSAKMPNASFSTLKIQPSEPRDSAVYFCASSIQAGGRYNEQFFGPGTRLTVLEDLKNVFPPEVAVFEPSEAEISHTQKATLVCLATGFYPDHVELSWWVNGKEVHSGVSTDPQPLKEQPALNDSRYCLSSRLRVSATFWQNPRNHFRCQVQFYGLSENDEWTQDRAKPVTQIVSAEAWGRADCGFTSESYQQGVLSATILYEILLGKATLYAVLVSALVLMAMVKRKDSRG
B13 was tested, and the “EC50 (nM) of CD69 upregulation” value was 14.9 nM.

B14: TCR-I DS (TCR)
TCR alpha: B13 TCR alpha with T161C
TCR beta: B13 TCR beta with S173C
With B14 the “EC50 (nM) of CD69 upregulation” value was 8.03 nM.

B15: TCR-F (TCR)
TCR alpha: EDQVTQSPEALRLQEGESSSLNCSYTVSGLRGLFWYRQDPGKGPEFLFTLYSAGEEKEKERLKATLTKKESFLHITAPKPEDSATYLCAVQATGYALNFGKGTSLLVTPHIQNPDPAVYQLRDSKSSDKSVCLFTDFDSQTNVSQSKDSDVYITDKTVLDMRSMDFKSNSAVAWSNKSDFACANAFNNSIIPEDTFFPSPESSCDVKLVEKSFETDTNLNFQNLSVIGFRILLLKVAGFNLLMTLRLWSS
TCR beta: GAGVSQSPSNKVTEKGKDVELRCDPISGHTALYWYRQSLGQGLEFLIYFQGNSAPDKSGLPSDRFSAERTGGSVSTLTIQRTQQEDSAVYLCASNLGGSRQPQHFGDGTRLSILEDLNKVFPPEVAVFEPSEAEISHTQKATLVCLATGFFPDHVELSWWVNGKEVHSGVSTDPQPLKEQPALNDSRYCLSSRLRVSATFWQNPRNHFRCQVQFYGLSENDEWTQDRAKPVTQIVSAEAWGRADCGFTSVSYQQGVLSATILYEILLGKATLYAVLVSALVLMAMVKRKDF
In the case of B15, the “EC50 (nM) of CD69 upregulation” value is reported as 1.5 nM.

B16: TCR-F DS (TCR)
TCR alpha: B15 TCR alpha with T157C
TCR beta: B15 TCR beta with S171C
For B16, the “EC50 (nM) of CD69 upregulation” value was 1.36 nM.
